For data set [1], the target named is T1, CXCR4 (Homo sapiens, UniProt P61073).
T1 construct: Jurkat cells, which are naturally expressing high levels of CXCR4; host or cells: Jurkat, clone E6-1
In words: Antibody-competition assay (anti-CXCR4 clone 12G5) on Ghost-CXCR4 cells. Format: binding. As to conditions: competition with CXCR4 antibody clone 12G5, Ghost-CXCR4 cells, 4 °C, 2 h; mean ± SEM. The procedure: (§1) Binding of the DOTA-conjugated EPI-X4 derivatives to CXCR4 was assessed by an antibody-competition assay[26] using Ghost cells stably transfected with CXCR4, as well as on Jurkat cells, which are naturally expressing high levels of CXCR4. […] The buffer was removed and plates were precooled at 4 °C. Ligands were serially diluted in PBS. The antibody (clone 12G5, Allophycocyanin labeled, BD Pharmingen #555976) was diluted in PBS containing 1% FBS. The antibody was used at a fixed concentration close to its KD. 15 μL of compound and immediately afterward 15 μL of the antibody were added to the cells. Plates were incubated at 4 °C in the dark for 2 h allowing to establish an equilibrium binding. Cells were then washed twice with PBS containing 1% FBS and fixed with 2% paraformaldehyde. Antibody binding was analyzed by flow cytometry (FACS CytoFLEX; Beckman Coulter).

In data set [2] the target is T1, CXCR4. In words: Antibody-competition assay (anti-CXCR4 clone 12G5) on Jurkat cells. The note with it: competition with CXCR4 antibody clone 12G5, Jurkat cells, 4 °C, 2 h; mean ± SEM. The data set is classed as binding. On the procedure: as §1
Data set [3] relates to Jurkat xenografts. Format: in vivo, mouse. As to conditions: 1 h p.i., SPECT/CT or PET/CT. On the procedure:
The ability of the ^177Lu ligands to target CXCR4 in vivo was assessed by SPECT/CT imaging in Jurkat xenografts. […] 1 h after injection, the remaining amount of radioligand in the body (and vice versa, the washout) was quantified by measuring the total body activity (mouse) in a dose calibrator. The % of the radioligand remaining in the body after 1 h is reported in Figure 6A as % of the remaining activity in reference to the injected activity (100%).
Figure 6 SPECT/CT images as maximum intensity projections (MIPs) of Jurkat tumor-bearing mice at 1 h p.i. of ^177Lu-labeled ligands (200 pmol, ∼15 MBq). […] (B) Same SPECT/CT images of ^177Lu-1, ^177Lu-2, ^177Lu-5, and ^177Lu-6, adapted in a lower scale. T: tumor, L: liver, and K: kidneys. […] TEXT PRINTED IN THE PICTURE: (A) ^177Lu-1: Remaining Activity (% injected): 6 % | (A) ^177Lu-2: Remaining Activity (% injected): 7 % | (A) ^177Lu-5: Remaining Activity (% injected): 7 % | (A) ^177Lu-6: Remaining Activity (% injected): 8 % | (A) ^177Lu-7: Remaining Activity (% injected): 55 % | (A) ^177Lu-9: Remaining Activity (% injected): 94 %
(§2) The experimental protocol involving animals was approved by the Veterinary Office (Department of Health) of the Cantonal Basel-Stadt (Approval No. 30515) in accordance with the Swiss regulations for animal treatment. Female athymic nude-Foxn1^nu/Foxn1^+ mice (Envigo, The Netherlands), 4–6 weeks old, were injected subcutaneously with 10^7 Jurkat cells in a 200 μL (1:1) mixture of PBS and Matrigel (CorningMatrigelMembrane matrix, Fischer Scientific, Germany) on the right shoulder. The tumors were allowed to grow for 3–4 weeks before commencement of the experiments.
Nude mice bearing Jurkat xenografts were intravenously injected via the tail vein with ∼15 MBq (200 pmol) of the ^177Lu ligands and 8 MBq (200 pmol) of ^68Ga-7 were euthanized 1 h post injection (p.i.). The radioactivity in the syringe before and after injection was measured followed by measuring the amount of radioactivity remaining in the sacrificed mice. […]

For data set [4], the system named is Jurkat xenografts. In words: in vivo. The note with it: female, athymic nude-Foxn1^nu/Foxn1^+, mouse, iv, 200 pmol, 1 h. On the procedure:
Quantification of the total body distribution of ^177Lu-7 and ^68Ga-7 was performed in Jurkat xenografted mice after intravenous injection of 100 μL, 200 pmol, with […], respectively (n = 5). The mice were sacrificed at 1 h p.i. ^177Lu-7 and ^68Ga-7 accumulated mainly in the kidneys (83.1 ± 25.5 and 75.6 ± 30.3%IA/g, respectively, p = 0.59), liver (5.19 ± 1.08 and 4.08 ± 1.05%IA/g, respectively, p = 0.07) and tumor (2.25 ± 0.43 and 2.24 ± 0.57%IA/g, respectively, p = 0.97), as already seen in the SPECT/CT and PET/CT images (Figures 6 and 7). Uptake in the tumor was lower than for the kidneys and liver but higher as in all other tissues investigated. […] The uptake seen in the liver might be attributed, at least partially, to the fact that CXCR4 is constitutively expressed in the sinusoidal endothelial cells of the murine liver[38] or could be related to another yet-unknown mechanism previously reported for other CXCR4-targeting probes.[11],[39] Regretfully, there are no direct measurements available for the affinity of ^177Lu-7 with the murine CXCR4 (mCXCR4). This is relevant for assessing its total body distribution. However, we have shown that EPI-X4 and EPI-X4 derivatives are active in mouse models of inflammatory diseases[22],[25] and cancer.[40] More specifically, EPI-X4 derivatives such as JM#21 reduced immune cell influx in lungs of mice suffering from allergic asthma or reduced skin inflammation in a murine model of atopic dermatitis upon topical administration. […] Thus, we speculate that the DOTA conjugate of JM#173 (ligand-7) also cross-reacts to the mCXCR4. […] Last, but not the least, the uptake in the kidneys was predominant, and given the highly hydrophilic character of ^177Lu-7, is attributed, at least partially, to its excretion via this path.
as §2
Quantitative biodistribution studies of ^177Lu-7 (100 μL, 200 pmol, 0.8–1 MBq) and ^68Ga-7 (100 μL, 200 pmol, 2–3 MBq) were performed after intravenous injection of the radioligand via the tail vein on Jurkat xenografts. […] 1 h after injection of the radioligand, mice were sacrificed, organs of interest and blood were collected, rinsed of excess blood, blotted dry, weighed, and counted in a γ-counter. The samples were counted against a suitable diluted aliquot of the injected solution as the standard and the results are expressed as percentage injected activity per gram of tissue (%IA/g). Statistical analysis between selected organs was performed by Welch’s t-test and p values <0.05 were considered statistically significant.

Square brackets hold non-standard residues; d marks the D form. Peptide text beside a SMILES is read from it. * marks the point of attachment. DOTA = O=C(O)CN1CCN(CC(=O)O)CCN(CC(=O)*)CCN(CC(=O)O)CC1; Palmitoyl = CCCCCCCCCCCCCCCC(=O)*

T1 sequence (P61073 whole entry): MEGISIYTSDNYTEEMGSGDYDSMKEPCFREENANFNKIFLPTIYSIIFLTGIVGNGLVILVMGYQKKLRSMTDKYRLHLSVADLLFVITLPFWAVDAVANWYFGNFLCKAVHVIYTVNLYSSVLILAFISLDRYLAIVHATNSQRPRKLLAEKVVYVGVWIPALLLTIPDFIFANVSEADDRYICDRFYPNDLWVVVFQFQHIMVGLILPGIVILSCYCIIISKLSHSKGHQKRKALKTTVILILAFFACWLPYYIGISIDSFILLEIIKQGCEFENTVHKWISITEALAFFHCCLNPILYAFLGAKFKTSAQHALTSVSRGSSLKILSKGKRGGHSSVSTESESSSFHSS

`CC(C)C[C@@H](N)C(=O)N[C@@H](CC(C)C)C(=O)N[C@@H](CCCNC(=N)N)C(=O)N[C@@H](Cc1c[nH]c2ccccc12)C(=O)N[C@@H](CO)C(=O)N[C@@H](CCCNC(=N)N)C(=O)N[C@@H](CCCCN)C(=O)N[C@@H](CC(C)C)C(=O)N1CCC[C@H]1C(=O)N[C@@H](CSSC[C@H](NC(=O)[C@@H]1CCCN1C(=O)[C@H](CC(C)C)NC(=O)[C@H](CCCCN)NC(=O)[C@H](CCCNC(=N)N)NC(=O)[C@H](CO)NC(=O)[C@H](Cc1c[nH]c2ccccc12)NC(=O)[C@H](CCCNC(=N)N)NC(=O)[C@H](CC(C)C)NC(=O)[C@H](N)CC(C)C)C(=O)N[C@H](C(=O)N[C@@H](CO)C(=O)N[C@@H](CCCCNC(=O)CN1CCN(CC(=O)O)CCN(CC(=O)O)CCN(CC(=O)O)CC1)C(=O)O)C(C)C)C(=O)N[C@H](C(=O)N[C@@H](CO)C(=O)N[C@@H](CCCCNC(=O)CN1CCN(CC(=O)O)CCN(CC(=O)O)CCN(CC(=O)O)CC1)C(=O)O)C(C)C` [^natLu-6 dimer, metal not drawn]: the IC50 on CXCR4 [1] is 763 ± 135 nM; on CXCR4 [2], 662 ± 160 nM.

Consider `CC[C@H](C)[C@H](N)C(=O)N[C@@H](CC(C)C)C(=O)N[C@@H](CCCNC(=N)N)C(=O)N[C@@H](Cc1c[nH]c2ccccc12)C(=O)N[C@@H](CO)C(=O)N[C@@H](CCCNC(=N)N)C(=O)N[C@@H](CCCCN)C(=O)N[C@@H](CC(C)C)C(=O)N1CCC[C@H]1C(=O)N[C@@H](CO)C(=O)N[C@H](C(=O)N[C@@H](CO)C(=O)N[C@@H](CCCCNC(=O)CN1CCN(CC(=O)O)CCN(CC(=O)O)CCN(CC(=O)O)CC1)C(=O)O)C(C)C` [^natLu-2, metal not drawn] (H-ILRWSRKLPSVSK(DOTA)-OH; N-terminus and C-terminus assumed), for which the IC50 at CXCR4 [1] is 122 ± 45 nM.

Regarding `CCCCCCCCCCCCCCCC(=O)NCCCC[C@H](NC(=O)[C@H](CCCCN)NC(=O)[C@H](CO)NC(=O)[C@H](Cc1c[nH]c2ccccc12)NC(=O)[C@H](CCCNC(=N)N)NC(=O)[C@@H](NC(=O)[C@@H](N)[C@@H](C)CC)C(C)C)C(=O)N[C@H](C(=O)N1CCC[C@H]1C(=O)N[C@@H](CS)C(=O)N[C@H](C(=O)N[C@@H](CO)C(=O)N[C@@H](CCCCNC(=O)CN1CCN(CC(=O)O)CCN(CC(=O)O)CCN(CC(=O)O)CC1)C(=O)O)C(C)C)C(C)C` [ligand-8, I^1VRWSKK^7(Pal)VPCS^12K(DOTA)] (H-IVRWSKK(Palmitoyl)VPCVSK(DOTA)-OH; N-terminus and C-terminus assumed), the figures for the IC50 at CXCR4 [1] and on CXCR4 [2] were 15 ± 5 nM and 4 ± 2 nM, respectively.

As for `CC[C@@H](C)[C@@H](N)C(=O)N[C@@H](CC(C)C)C(=O)N[C@@H](CCCNC(=N)N)C(=O)N[C@@H](Cc1c[nH]c2ccccc12)C(=O)N[C@@H](CO)C(=O)N[C@@H](CCCNC(=N)N)C(=O)N[C@@H](CCCCN)C(=O)N[C@@H](CCCCNC(=O)CN1CCN(CC(=O)O)CCN(CC(=O)O)CCN(CC(=O)O)CC1)C(N)=O` [^68Ga-7, metal not drawn] (H-[dI]LRWSRKK(DOTA)-NH2; N-terminus assumed), in the data set with Jurkat xenografts [3], the “visualization of CXCR4-expressing tumor xenograft by imaging” value is “visualized the CXCR4-expressing tumor xenograft”. Also, in the data set on Jurkat xenografts [4], the uptake in adrenal is listed as 2.69 ± 0.94 % IA/g, the uptake in femur came out at 1.29 ± 0.43 % IA/g, the uptake in heart came to 0.25 ± 0.09 % IA/g and the uptake in intestine is 0.59 ± 0.18 % IA/g. In the data set on Jurkat xenografts [4], the uptake in lung amounted to 1.78 ± 0.81 % IA/g, the uptake in muscle stood at 0.44 ± 0.26 % IA/g, the uptake in pancreas stood at 0.20 ± 0.11 % IA/g and the uptake in spleen is recorded as 0.85 ± 0.29 % IA/g. This compound came in with an uptake in stomach in the data set with Jurkat xenografts [4] of 0.41 ± 0.16 % IA/g.

For the compound `CC[C@H](C)[C@H](N)C(=O)N[C@@H](CC(C)C)C(=O)N[C@@H](CCCNC(=N)N)C(=O)N[C@@H](Cc1c[nH]c2ccccc12)C(=O)N[C@@H](CO)C(=O)N[C@@H](CCCNC(=N)N)C(=O)N[C@@H](CCCCN)C(=O)N[C@@H](CC(C)C)C(=O)N1CCC[C@H]1C(=O)N[C@@H](CSSC[C@H](NC(=O)[C@@H]1CCCN1C(=O)[C@H](CC(C)C)NC(=O)[C@H](CCCCN)NC(=O)[C@H](CCCNC(=N)N)NC(=O)[C@H](CO)NC(=O)[C@H](Cc1c[nH]c2ccccc12)NC(=O)[C@H](CCCNC(=N)N)NC(=O)[C@H](CC(C)C)NC(=O)[C@@H](N)[C@@H](C)CC)C(=O)N[C@H](C(=O)N[C@@H](CO)C(=O)N[C@@H](CCCCNC(=O)CN1CCN(CC(=O)O)CCN(CC(=O)O)CCN(CC(=O)O)CC1)C(=O)O)C(C)C)C(=O)N[C@H](C(=O)N[C@@H](CO)C(=O)N[C@@H](CCCCNC(=O)CN1CCN(CC(=O)O)CCN(CC(=O)O)CCN(CC(=O)O)CC1)C(=O)O)C(C)C` [^natLu-1 dimer, metal not drawn], the IC50 at CXCR4 [1] was 225 ± 111 nM; at CXCR4 [2], 122 ± 63 nM.

One may read the IC50 as the concentration that gives 50% inhibition.

The values above are taken from publication PMC10350915, “Development of a New Class of CXCR4-Targeting Radioligands Based on the Endogenous Antagonist EPI-X4 for Oncological Applications” (Journal of Medicinal Chemistry, 2023).
